Target: Innovin, lyophilized recombinant human tissue factor combined with phospholipids (human) (UniProt P13726)
Assay: cell-based or functional assay

Sequence of Innovin, lyophilized recombinant human tissue factor combined with phospholipids (human) (P13726 33-295 limits assumed): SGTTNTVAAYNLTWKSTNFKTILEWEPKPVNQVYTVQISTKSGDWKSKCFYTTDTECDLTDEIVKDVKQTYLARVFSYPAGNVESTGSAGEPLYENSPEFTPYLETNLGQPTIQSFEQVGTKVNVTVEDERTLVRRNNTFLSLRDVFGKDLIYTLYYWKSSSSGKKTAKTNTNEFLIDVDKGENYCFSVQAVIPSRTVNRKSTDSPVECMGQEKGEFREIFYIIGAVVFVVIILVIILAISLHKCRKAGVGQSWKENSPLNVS

With “CNTO 860, humanized form of the antibody 5G9, human IgG1/Kappa” as the substance, how does the T½ Max (seconds), coagulation of human plasma read?
The T½ Max (seconds), coagulation of human plasma was over 900 s.

And the coagulation time?
Its coagulation time is over 1800 s.

Reference: patent publication US20120237528A1
